Results published in article PMC9352680, “A comprehensive thermodynamic model for RNA binding by the Saccharomyces cerevisiae Pumilio protein PUF4”.

Target: T1, PUF4 RNA-binding domain (Saccharomyces cerevisiae, UniProt P25339 537-888)
T1 sequence: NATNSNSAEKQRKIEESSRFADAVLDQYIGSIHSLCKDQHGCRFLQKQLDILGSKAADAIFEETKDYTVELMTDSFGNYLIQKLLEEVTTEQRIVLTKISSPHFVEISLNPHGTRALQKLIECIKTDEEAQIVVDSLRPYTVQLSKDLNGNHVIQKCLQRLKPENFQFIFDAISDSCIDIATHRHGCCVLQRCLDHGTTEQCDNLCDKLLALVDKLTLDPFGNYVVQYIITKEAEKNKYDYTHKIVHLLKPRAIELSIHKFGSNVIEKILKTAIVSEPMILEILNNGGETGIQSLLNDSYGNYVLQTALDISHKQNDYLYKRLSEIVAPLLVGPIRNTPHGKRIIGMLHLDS
Assay: Mg; RNA-MaP; 20 mM Na-HEPES pH 7.4, 30 mM KOAc, 0.75 mM MgCl2, 0.1% Tween-20, 5% glycerol, 0.1 mg/mL BSA, 2 mM DTT; 25 C; 0.0125-409.6 nM protein
Settings: tags: N-His6-TEV cleaved; C-SNAP kept, Cy3B-labelled; label: tethered on chip by stalled RNA polymerase

Binder	Kd [nM]
UCUCUUCUUGUAUAUUAGUUCUCUU (ssRNA) [If_S1_P4E.2_K4.1_C4.2_H4.1_A4.1_F4.1_T4.2]	0.286
UCUCUUUCUAUAUAUUAUAUCUCUU (ssRNA) [Id_ii_S1_P4E.3_K4.2_C4.2_[C-2T]_[T-1C]_H4.2_A4.1_F4.1_T4.2_[G10T]_[T11A]]	34.9
UCUCUUGUUAUAUAUUAAAUCUCUU (ssRNA) [Id_ii_S1_P4E.3_K4.2_C4.2_[C-2G]_H4.2_A4.1_F4.1_T4.2_[G10A]_[T11A]]	26.8
UCUCUUGUUAUAUAUUAUCUCUCUU (ssRNA) [Id_ii_S1_P4E.3_K4.2_C4.2_[C-2G]_H4.2_A4.1_F4.1_T4.2_[G10T]_[T11C]]	12.5
UCUCUUGUUAUAUAUUAGUUCUCUU (ssRNA) [Id_ii_S1_P4E.3_K4.2_C4.2_[C-2G]_H4.2_A4.1_F4.1_T4.2]	8.13
UCUCUUGUUAUAUAUUAUUUCUCUU (ssRNA) [Id_ii_S1_P4E.3_K4.2_C4.2_[C-2G]_H4.2_A4.1_F4.1_T4.2_[G10T]]	22.3
UCUCUUCAUGUAUAUUAGCUCUCUU (ssRNA) [Id_ii_S1_P4E.2_K4.1_C4.2_[T-1A]_H4.1_A4.1_F4.1_T4.2_[T11C]]	0.425
UCUCUUUGUUAAUUAUCUCUU (ssRNA) [Ib_S1_P4E.1_K4.1_C4.1_H4.1_[A4T]_A4.1_[T5A]_F4.1_T4.1]	43.5
UCUCUUUGUAUAUAUUAGGUCUCUU (ssRNA) [Id_ii_S1_P4E.3_K4.2_C4.2_[C-2T]_[T-1G]_H4.2_A4.1_F4.1_T4.2_[T11G]]	7.71
UCUCUUUGUUCAUUAUCUCUU (ssRNA) [Ib_S1_P4E.1_K4.1_C4.1_H4.1_[A4T]_A4.1_[T5C]_F4.1_T4.1]	21.1
UCUCUUGUUAUAUAUUAUGUCUCUU (ssRNA) [Id_ii_S1_P4E.3_K4.2_C4.2_[C-2G]_H4.2_A4.1_F4.1_T4.2_[G10T]_[T11G]]	15.3
UCUCUUUCUAUAUAUUAAGUCUCUU (ssRNA) [Id_ii_S1_P4E.3_K4.2_C4.2_[C-2T]_[T-1C]_H4.2_A4.1_F4.1_T4.2_[G10A]_[T11G]]	130
UCUCUUUGUAUAUAUUAACUCUCUU (ssRNA) [Id_ii_S1_P4E.3_K4.2_C4.2_[C-2T]_[T-1G]_H4.2_A4.1_F4.1_T4.2_[G10A]_[T11C]]	2.38
UCUCUUGCUAUAUAUUAAAUCUCUU (ssRNA) [Id_ii_S1_P4E.3_K4.2_C4.2_[C-2G]_[T-1C]_H4.2_A4.1_F4.1_T4.2_[G10A]_[T11A]]	126
UCUCUUCUUGUAUAUUAAAUCUCUU (ssRNA) [Id_ii_S1_P4E.2_K4.1_C4.2_H4.1_A4.1_F4.1_T4.2_[G10A]_[T11A]]	0.971
UCUCUUUGUAUAUAUUAUCUCUCUU (ssRNA) [Id_ii_S1_P4E.3_K4.2_C4.2_[C-2T]_[T-1G]_H4.2_A4.1_F4.1_T4.2_[G10T]_[T11C]]	4.63
UCUCUUGCUAUAUAUUAUGUCUCUU (ssRNA) [Id_ii_S1_P4E.3_K4.2_C4.2_[C-2G]_[T-1C]_H4.2_A4.1_F4.1_T4.2_[G10T]_[T11G]]	42
UCUCUUGUUAUAUAUUACCUCUCUU (ssRNA) [Id_ii_S1_P4E.3_K4.2_C4.2_[C-2G]_H4.2_A4.1_F4.1_T4.2_[G10C]_[T11C]]	13
UCUCUUCUUGUAUAUUAUUUCUCUU (ssRNA) [Id_ii_S1_P4E.2_K4.1_C4.2_H4.1_A4.1_F4.1_T4.2_[G10T]]	0.541

Binder	Kd [nM]
UCUCUUGUUAUAUAUUAAUUCUCUU (ssRNA) [Id_ii_S1_P4E.3_K4.2_C4.2_[C-2G]_H4.2_A4.1_F4.1_T4.2_[G10A]]	21
UCUCUUGCUAUAUAUUACAUCUCUU (ssRNA) [Id_ii_S1_P4E.3_K4.2_C4.2_[C-2G]_[T-1C]_H4.2_A4.1_F4.1_T4.2_[G10C]_[T11A]]	44.4
UCUCUUUGUAUAUAUUAAGUCUCUU (ssRNA) [Id_ii_S1_P4E.3_K4.2_C4.2_[C-2T]_[T-1G]_H4.2_A4.1_F4.1_T4.2_[G10A]_[T11G]]	8.46
UCUCUUUGUAUUAGUAUCUCUU (ssRNA) [Ia_S1_P5E.1_K5.1_C5.1_H5.1_A5.1_F5.1_[T8G]_T5.1]	18.2
UCUCUUCUUGUAUAUUACCUCUCUU (ssRNA) [Id_ii_S1_P4E.2_K4.1_C4.2_H4.1_A4.1_F4.1_T4.2_[G10C]_[T11C]]	0.733
UCUCUUCUUGUAUAUUAACUCUCUU (ssRNA) [Id_ii_S1_P4E.2_K4.1_C4.2_H4.1_A4.1_F4.1_T4.2_[G10A]_[T11C]]	0.862
UCUCUUUCUAUAUAUUAAUUCUCUU (ssRNA) [Id_ii_S1_P4E.3_K4.2_C4.2_[C-2T]_[T-1C]_H4.2_A4.1_F4.1_T4.2_[G10A]]	39.7
UCUCUUUCUAUAUAUUAUCUCUCUU (ssRNA) [Id_ii_S1_P4E.3_K4.2_C4.2_[C-2T]_[T-1C]_H4.2_A4.1_F4.1_T4.2_[G10T]_[T11C]]	17.2
UCUCUUCUUGUAUAUUACUUCUCUU (ssRNA) [Id_ii_S1_P4E.2_K4.1_C4.2_H4.1_A4.1_F4.1_T4.2_[G10C]]	0.702
UCUCUUGCUAUAUAUUAUCUCUCUU (ssRNA) [Id_ii_S1_P4E.3_K4.2_C4.2_[C-2G]_[T-1C]_H4.2_A4.1_F4.1_T4.2_[G10T]_[T11C]]	38.5
UCUCUUUGUAUAUAUUAGCUCUCUU (ssRNA) [Id_ii_S1_P4E.3_K4.2_C4.2_[C-2T]_[T-1G]_H4.2_A4.1_F4.1_T4.2_[T11C]]	3.46
UCUCUUCUUGUAUAUUAGCUCUCUU (ssRNA) [Id_ii_S1_P4E.2_K4.1_C4.2_H4.1_A4.1_F4.1_T4.2_[T11C]]	0.287
UCUCUUUCUAUAUAUUACGUCUCUU (ssRNA) [Id_ii_S1_P4E.3_K4.2_C4.2_[C-2T]_[T-1C]_H4.2_A4.1_F4.1_T4.2_[G10C]_[T11G]]	30.7
UCUCUUCUUGUAUAUUAUAUCUCUU (ssRNA) [Ie_S1_P3E.2_K3.1_C3.2_H3.1_A3.1_[+6T]_F3.1_T3.2]	0.724
UCUCUUUGUCCAUUAUCUCUU (ssRNA) [Ib_S1_P4E.1_K4.1_C4.1_H4.1_[A4C]_A4.1_[T5C]_F4.1_T4.1]	20.5
UCUCUUUGUAUAUAUUAGUUCUCUU (ssRNA) [Id_ii_S1_P4E.3_K4.2_C4.2_[C-2T]_[T-1G]_H4.2_A4.1_F4.1_T4.2]	3.67
UCUCUUGCUAUAUAUUACUUCUCUU (ssRNA) [Id_ii_S1_P4E.3_K4.2_C4.2_[C-2G]_[T-1C]_H4.2_A4.1_F4.1_T4.2_[G10C]]	30.6
UCUCUUGCUAUAUAUUAUAUCUCUU (ssRNA) [Id_ii_S1_P4E.3_K4.2_C4.2_[C-2G]_[T-1C]_H4.2_A4.1_F4.1_T4.2_[G10T]_[T11A]]	57.3
UCUCUUUGUCGAUUAUCUCUU (ssRNA) [Ib_S1_P4E.1_K4.1_C4.1_H4.1_[A4C]_A4.1_[T5G]_F4.1_T4.1]	336

Binder	Kd [nM]
UCUCUUCAUGUAUAUUAGGUCUCUU (ssRNA) [Id_ii_S1_P4E.2_K4.1_C4.2_[T-1A]_H4.1_A4.1_F4.1_T4.2_[T11G]]	1.02
UCUCUUUCUAUAUAUUAAAUCUCUU (ssRNA) [Id_ii_S1_P4E.3_K4.2_C4.2_[C-2T]_[T-1C]_H4.2_A4.1_F4.1_T4.2_[G10A]_[T11A]]	61.2
UCUCUUGCUAUAUAUUAUUUCUCUU (ssRNA) [Id_ii_S1_P4E.3_K4.2_C4.2_[C-2G]_[T-1C]_H4.2_A4.1_F4.1_T4.2_[G10T]]	29.8
UCUCUUUGUAUAUAUUAUUUCUCUU (ssRNA) [Id_ii_S1_P4E.3_K4.2_C4.2_[C-2T]_[T-1G]_H4.2_A4.1_F4.1_T4.2_[G10T]]	4.46
UCUCUUGCUAUAUAUUACCUCUCUU (ssRNA) [Id_ii_S1_P4E.3_K4.2_C4.2_[C-2G]_[T-1C]_H4.2_A4.1_F4.1_T4.2_[G10C]_[T11C]]	61.4
UCUCUUCUUGUAUAUUAAUUCUCUU (ssRNA) [Id_ii_S1_P4E.2_K4.1_C4.2_H4.1_A4.1_F4.1_T4.2_[G10A]]	0.76
UCUCUUCAUGUAUAUUAGUUCUCUU (ssRNA) [Id_ii_S1_P4E.2_K4.1_C4.2_[T-1A]_H4.1_A4.1_F4.1_T4.2]	0.326
UCUCUUGCUAUAUAUUAAUUCUCUU (ssRNA) [Id_ii_S1_P4E.3_K4.2_C4.2_[C-2G]_[T-1C]_H4.2_A4.1_F4.1_T4.2_[G10A]]	70.2
UCUCUUUCUAUAUAUUACAUCUCUU (ssRNA) [Id_ii_S1_P4E.3_K4.2_C4.2_[C-2T]_[T-1C]_H4.2_A4.1_F4.1_T4.2_[G10C]_[T11A]]	23.1
UCUCUUGCUAUAUAUUAACUCUCUU (ssRNA) [Id_ii_S1_P4E.3_K4.2_C4.2_[C-2G]_[T-1C]_H4.2_A4.1_F4.1_T4.2_[G10A]_[T11C]]	55
UCUCUUUGUCAAUUAUCUCUU (ssRNA) [Ib_S1_P4E.1_K4.1_C4.1_H4.1_[A4C]_A4.1_[T5A]_F4.1_T4.1]	134
UCUCUUUGUAUAUAUUAAUUCUCUU (ssRNA) [Id_ii_S1_P4E.3_K4.2_C4.2_[C-2T]_[T-1G]_H4.2_A4.1_F4.1_T4.2_[G10A]]	4.75
UCUCUUUCUAUAUAUUAUUUCUCUU (ssRNA) [Id_ii_S1_P4E.3_K4.2_C4.2_[C-2T]_[T-1C]_H4.2_A4.1_F4.1_T4.2_[G10T]]	21.6
UCUCUUGCUAUAUAUUACGUCUCUU (ssRNA) [Id_ii_S1_P4E.3_K4.2_C4.2_[C-2G]_[T-1C]_H4.2_A4.1_F4.1_T4.2_[G10C]_[T11G]]	56.3
UCUCUUGUUAUAUAUUACUUCUCUU (ssRNA) [Id_ii_S1_P4E.3_K4.2_C4.2_[C-2G]_H4.2_A4.1_F4.1_T4.2_[G10C]]	16.9
UCUCUUUCUAUAUAUUACUUCUCUU (ssRNA) [Id_ii_S1_P4E.3_K4.2_C4.2_[C-2T]_[T-1C]_H4.2_A4.1_F4.1_T4.2_[G10C]]	23.8
UCUCUUUCUAUAUAUUACCUCUCUU (ssRNA) [Id_ii_S1_P4E.3_K4.2_C4.2_[C-2T]_[T-1C]_H4.2_A4.1_F4.1_T4.2_[G10C]_[T11C]]	25.2
UCUCUUCUUGUAUAUUAUGUCUCUU (ssRNA) [Id_ii_S1_P4E.2_K4.1_C4.2_H4.1_A4.1_F4.1_T4.2_[G10T]_[T11G]]	0.808
UCUCUUUGUGUGUUAUCUCUU (ssRNA) [Ib_S1_P4E.1_K4.1_C4.1_H4.1_[A4G]_A4.1_[A6G]_F4.1_T4.1]	43.8
